Source: KR20180129514A (dated 2018)

Molecular target: T1, mCherry H-RAS G12V (NIH3T3 세포주에서 발현) (UniProt P01112 1-186)
T1 construct: whole, on cells; Intracellular, at the inner face of the cell membrane; also called 세포내 활성화된 H-RAS G12V 돌연변이; 활성화된 RAS; not shown: mCherry red fluorescent protein
Assay: confocal microscopy, overlap in NIH3T3 cells expressing mCherry H-RAS G12V

B1: 세포질 침투 항체 TMab4 (antibody, V domains shown)
VH: EVQLVESGGGLVQPGGSLRLSCAASGYTFTSYVMHWVRQAPGKGLEWVSAINPYNDGNYYADSVKGRFTISRDNSRKTLYLQMNSLRAEDTAVYYCARGAYKRGYAMDYWGQGTTVTVSS
VL: DLVMTQSPSSLSASVGDRVTITCKSSQSLFNSRTRKNYLAWYQQKPGKAPKLLIYWASTRESGVPSRFSGSGSGTDFTLTISSLQPEDFATYYCQQYYYHMYTFGQGTKVEIKR
notes: Full IgG format (CH1-hinge-CH2-CH3 and CL, detected with anti-human Fc); also called cytotransmab; CT
Q: Does B1 bind?
A: no binding (tested: 2 μM)
